Residue numbers refer to the chain shown, from its start. Names may count otherwise.
T1: TNFR1 (Homo sapiens, UniProt P19438)
T1 chain: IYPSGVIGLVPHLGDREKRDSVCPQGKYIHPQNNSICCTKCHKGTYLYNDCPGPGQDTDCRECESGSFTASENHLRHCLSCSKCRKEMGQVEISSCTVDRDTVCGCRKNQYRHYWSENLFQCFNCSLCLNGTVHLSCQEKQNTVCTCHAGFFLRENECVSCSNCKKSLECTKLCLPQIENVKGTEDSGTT

B1: L76W (designed binder)
chain: SMEEEVEKAAKEYEKKKKEAIEKHLEKLKAKDKEAAERFLKELEEAAKEYAKDEAKTMSEEEAKRRAKKYKEKVLWSELSEEEQKEIKEAEEKLVRTILKYVEEAAK
B2: E62M (designed binder)
chain: B1 chain with E62M, W76L
B3: I21R (designed binder)
chain: B1 chain with I21R, W76L
B4: I87E (designed binder)
chain: B1 chain with W76L, I87E
B5: K85W (designed binder)
chain: B1 chain with W76L, K85W
B6: V102F (designed binder)
chain: B1 chain with W76L, V102F
B7: K73T (designed binder)
chain: B1 chain with K73T, W76L
B8: K93I (designed binder)
chain: B1 chain with W76L, K93I
B9: E49H (designed binder)
chain: B1 chain with E49H, W76L
B10: E22Y (designed binder)
chain: B1 chain with E22Y, W76L
B11: Y70L (designed binder)
chain: B1 chain with Y70L, W76L
B12: K18P (designed binder)
chain: B1 chain with K18P, W76L
B13: E7W (designed binder)
chain: B1 chain with E7W, W76L
B14: E103H (designed binder)
chain: B1 chain with W76L, E103H
B15: S1E (designed binder)
chain: B1 chain with S1E, W76L
B16: K29S (designed binder)
chain: B1 chain with K29S, W76L
B17: K71C (designed binder)
chain: B1 chain with K71C, W76L
B18: L75V (designed binder)
chain: B1 chain with L75V, W76L
B19: E44N (designed binder)
chain: B1 chain with E44N, W76L
B20: E60Q (designed binder)
chain: B1 chain with E60Q, W76L
B21: L76T (designed binder)
chain: B1 chain with W76T
B22: E60Y (designed binder)
chain: B1 chain with E60Y, W76L
B23: E54I (designed binder)
chain: B1 chain with E54I, W76L
B24: V102Y (designed binder)
chain: B1 chain with W76L, V102Y
B25: D32I (designed binder)
chain: B1 chain with D32I, W76L
B26: E54M (designed binder)
chain: B1 chain with E54M, W76L
B27: V6D (designed binder)
chain: B1 chain with V6D, W76L
B28: K88H (designed binder)
chain: B1 chain with W76L, K88H
B29: V102S (designed binder)
chain: B1 chain with W76L, V102S
B30: R38D (designed binder)
chain: B1 chain with R38D, W76L
B31: F39L (designed binder)
chain: B1 chain with F39L, W76L
B32: D53Q (designed binder)
chain: B1 chain with D53Q, W76L
B33: K56N (designed binder)
chain: B1 chain with K56N, W76L
B34: K85M (designed binder)
chain: B1 chain with W76L, K85M
B35: A51D (designed binder)
chain: B1 chain with A51D, W76L
B36: E49F (designed binder)
chain: B1 chain with E49F, W76L
B37: A55I (designed binder)
chain: B1 chain with A55I, W76L
B38: E5C (designed binder)
chain: B1 chain with E5C, W76L
B39: E42R (designed binder)
chain: B1 chain with E42R, W76L
B40: E5V (designed binder)
chain: B1 chain with E5V, W76L
B41: K17C (designed binder)
chain: B1 chain with K17C, W76L
B42: E19S (designed binder)
chain: B1 chain with E19S, W76L
B43: R66F (designed binder)
chain: B1 chain with R66F, W76L
B44: L99A (designed binder)
chain: B1 chain with W76L, L99A
B45: K56S (designed binder)
chain: B1 chain with K56S, W76L
B46: I98T (designed binder)
chain: B1 chain with W76L, I98T
B47: R96F (designed binder)
chain: B1 chain with W76L, R96F
B48: E49N (designed binder)
chain: B1 chain with E49N, W76L
B49: E44G (designed binder)
chain: B1 chain with E44G, W76L
B50: R65G (designed binder)
chain: B1 chain with R65G, W76L
B51: E60K (designed binder)
chain: B1 chain with E60K, W76L
B52: H24N (designed binder)
chain: B1 chain with H24N, W76L
B53: A36R (designed binder)
chain: B1 chain with A36R, W76L
B54: A51Y (designed binder)
chain: B1 chain with A51Y, W76L
B55: K11N (designed binder)
chain: B1 chain with K11N, W76L
B56: A20N (designed binder)
chain: B1 chain with A20N, W76L
B57: L25N (designed binder)
chain: B1 chain with L25N, W76L
B58: E78V (designed binder)
chain: B1 chain with W76L, E78V
B59: V74A (designed binder)
chain: B1 chain with V74A, W76L

Molecular target: T1, TNFR1
Experiment: yeast display SC50

Row | Binder | apparent Kd (screen)
1 | B1 | 3 nM
2 | B2 | 0.446 nM
3 | B3 | 0.869 nM
4 | B4 | 9.41 nM
5 | B5 | 0.446 nM
6 | B6 | 10.4 nM
7 | B7 | 13.8 nM
8 | B8 | 1.69 nM
9 | B9 | 10.4 nM
10 | B10 | 1.27 nM
11 | B11 | 8.56 nM
12 | B12 | 5.84 nM
13 | B13 | 12.5 nM
14 | B14 | 0.446 nM
15 | B15 | 0.49 nM
16 | B16 | 0.446 nM
17 | B17 | 0.446 nM
18 | B18 | 0.446 nM
19 | B19 | 1.05 nM
20 | B20 | 1.05 nM

Row | Binder | apparent Kd (screen)
21 | B21 | 0.653 nM
22 | B22 | 0.718 nM
23 | B23 | 13.8 nM
24 | B24 | 2.73 nM
25 | B25 | 4.83 nM
26 | B26 | 2.48 nM
27 | B27 | 13.8 nM
28 | B28 | 0.49 nM
29 | B29 | 0.446 nM
30 | B30 | 3 nM
31 | B31 | 1.16 nM
32 | B32 | 2.05 nM
33 | B33 | 4.39 nM
34 | B34 | 0.956 nM
35 | B35 | 12.5 nM
36 | B36 | 9.41 nM
37 | B37 | 3 nM
38 | B38 | 1.05 nM
39 | B39 | 7.78 nM
40 | B40 | 1.27 nM

Row | Binder | apparent Kd (screen)
41 | B41 | 2.73 nM
42 | B42 | 0.446 nM
43 | B43 | 22.2 nM
44 | B44 | 16.7 nM
45 | B45 | 7.78 nM
46 | B46 | 15.2 nM
47 | B47 | 2.48 nM
48 | B48 | 10.4 nM
49 | B49 | 2.48 nM
50 | B50 | 0.956 nM
51 | B51 | 1.69 nM
52 | B52 | 0.446 nM
53 | B53 | 0.718 nM
54 | B54 | 0.49 nM
55 | B55 | 0.446 nM
56 | B56 | 0.539 nM
57 | B57 | 0.539 nM
58 | B58 | 0.593 nM
59 | B59 | 16.7 nM

— publication PMC12416549 (2024)
